What was measured:
[1] = target: GFP-binding nanobody Enhancer (camelid); test: Molecular Force Assay (Protein-MFA); Enhancer covalently on the glass slide via its C-terminus (PEG linker); GFP attached at its N-terminus to the DNA reference; reference 20 bp DNA stabilized with polyamide P1; one contact process with a single stamp; retraction 1 um/s; read-out Normalized Fluorescence (NF), 0.5 = protein bond as strong as the reference
[2] = target: GFP-binding nanobody Enhancer (camelid); test: Molecular Force Assay (Protein-MFA); multiplexed measurement of Fig. 2B: nanobody on the glass slide, sfGFP on the DNA reference; references compared: unmodified 40 bp DNA, 40 bp DNA with propynyl bases, 20 bp DNA with polyamide P1, P2 or P3 (1 uM); pH 7.4; read-out NF

Sequence of GFP-binding nanobody Enhancer (camelid) (heavy, as listed by the source): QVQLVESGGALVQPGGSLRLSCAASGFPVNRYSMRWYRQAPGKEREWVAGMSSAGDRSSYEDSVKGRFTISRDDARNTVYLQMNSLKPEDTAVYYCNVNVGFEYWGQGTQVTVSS

Normalized Fluorescence (NF), 20 bp DNA reference with polyamide P1 [1]: 0.353
Normalized Fluorescence (NF), 40 bp DNA reference with propynyl bases [2]: 0.8
Substance: superfolder GFP (from UniProt P42212 1-238) (natural protein)

From paper PMC4278885
